# Test results published in patent US7238711 (CAMBRIDGE ENTERPRISE, dated 2007).
# T1: Duffy Antigen Receptor for Chemokines (DARC) (human, UniProt Q16570 1-336)
# T1 construct: whole, on cells; also called red blood cells expressing DARC
# T1 sequence (looked up): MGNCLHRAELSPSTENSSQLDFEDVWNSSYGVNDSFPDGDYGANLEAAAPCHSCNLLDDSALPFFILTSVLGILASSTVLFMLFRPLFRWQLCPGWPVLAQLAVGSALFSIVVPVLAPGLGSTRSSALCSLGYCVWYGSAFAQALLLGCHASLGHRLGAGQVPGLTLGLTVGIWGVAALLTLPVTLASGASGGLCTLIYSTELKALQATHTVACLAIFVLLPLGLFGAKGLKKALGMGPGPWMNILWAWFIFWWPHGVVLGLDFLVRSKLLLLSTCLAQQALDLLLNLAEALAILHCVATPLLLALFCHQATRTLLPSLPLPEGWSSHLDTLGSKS
# Experiments:
# [1] = target: T1, Duffy Antigen Receptor for Chemokines …; assay: DARC binding, Table 18
# [2] = target: T1, Duffy Antigen Receptor for Chemokines …; assay: ka for red blood cells divided by ka for THP-1 cells
Binder,DARC binding [1] [µM],Duffy selectivity [2]
SYRRITSSKC,22,–
HLKILNTPNCALQIV (also called Pep2[SDF1]; peptide 2(1-15)[SDF1α]) [Pep2(1-15)[SDF1]],19,< 1

# Now from value to binder:
DARC binding [1] [µM],Duffy selectivity [2],Binder
–,> 100,DYFETSSQCSKPGV (also called Pep2[MIP1α]; peptide 2(1-15)[MIP1-α]) [Pep2(1-14)[MIP1α]]
0.1,0.18,SYRRITSSKCPKEAV (also called Pep2[MCP1]; Pep2(1-15)[MCP1]) [peptide 2(1-15)[MCP-1]]
